# Measured values published in the supplement of paper PMC10724198.
# ± gives the standard deviation of the averaged measurements.
# Test system: Saccharomyces cerevisiae
# Test: protein stability index of tFT-peptide fusion (C-terminal peptide) (PSI (0-1 scale)); higher = more stable (slower turnover)
# Conditions: genetic background: wild type; temperature: 30 C
# 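Further: PSI is a weighted mean of sequencing reads over stability bins, variants kept only with over 10 reads, mCherry proximal and sfGFP distal, peptide attached via GGGS linker.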
row,Sequence,protein stability index
1,LLFSRVDFSSPL,0.804 ± 0.098
2,KSVSVDGYNKED,0.646 ± 0.01
3,KREMCHRYTRRS,0.67 ± 0.097
4,LLRSSPPLPPPS,0.737 ± 0.029
5,PPTQSRLPLPLL,0.674 ± 0.033
6,VVGWSSGVVEVA,0.688 ± 0.035
7,PRFGADVQKLVG,0.653 ± 0.045
8,RIRLNHAMSTVV,0.625 ± 0.019
9,LPTPFKSSPSAA,0.674 ± 0.024
10,GIQAGGGGGKGG,0.676 ± 0.022
11,LPGFPGPSCICH,0.703 ± 0.21
12,SPRPSVLPPLSL,0.734 ± 0.011
13,GVSTGSGASVAA,0.659 ± 0.051
14,APDPARPSTRPL,0.6892 ± 0.0058
15,GEGHGGMLDVVM,0.686 ± 0.066
16,GGGDRDGGTASG,0.698 ± 0.073
17,VEGISKMTRINP,0.8698 ± 0.0057
18,GGRTRPGGLSRP,0.678 ± 0.035
19,RGRKEQSKKKKE,0.647 ± 0.13
20,WGKRGGLGALSR,0.653 ± 0.06
21,PLLPPLPVSPLP,0.704 ± 0.038
22,TPGLVRVGSVSF,0.708 ± 0.017
23,LPPSPPLPCPLL,0.75 ± 0.048
24,PPPARSRCTHPT,0.706 ± 0.026
25,VLPAWSGTHFVG,0.714 ± 0.017
26,IHLTRGGNGHMD,0.6 ± 0.04

row,Sequence,protein stability index
1,WQIDVWDSNCVM,0.692 ± 0.027
2,PPSAPPPSYHPP,0.607 ± 0.045
3,PPPSPAPLPAGP,0.682 ± 0.061
4,VGFDFLFRFFFL,0.628 ± 0.037
5,PPNTSVPSSLGR,0.667 ± 0.038
6,VLPPLSALAPFD,0.764 ± 0.029
7,PSPPPLPPLPPF,0.682 ± 0.029
8,GGVLDGVGVRMG,0.69 ± 0.054
9,SVGGILWLMLEG,0.677 ± 0.044
10,VCGECGWRRVCL,0.734 ± 0.028
11,GRWGRGGASVVT,0.649 ± 0.029
12,SSVSRIYTPSSL,0.677 ± 0.12
13,PRSVLGFKMGRF,0.715 ± 0.065
14,VVVGQGPLRGGA,0.714 ± 0.021
15,VPPALPRSPGPP,0.72 ± 0.069
16,NRYRKNIKKRKK,0.617 ± 0.028
17,RLVLTHVSRCWQ,0.673 ± 0.065
18,DQIYEKQKIPST,0.621 ± 0.0079
19,SCSGTIGVYENP,0.684 ± 0.024
20,RFCIARGSLLDY,0.554 ± 0.025
21,VCPPIVSSSWIL,0.687 ± 0.035
22,RGRLCRESGSRS,0.711 ± 0.033
23,FADTALLCELLR,0.687 ± 0.033
24,YCLERVPAEYDG,0.67 ± 0.019
25,YINTKKKKINKT,0.655 ± 0.014
26,SVAVTGSTLVLI,0.628 ± 0.036

row,Sequence,protein stability index
1,APHYPTGPTVKI,0.692 ± 0.033
2,ASVCASCYTGGF,0.665 ± 0.03
3,PSPDPCPLGRTA,0.629 ± 0.067
4,CSPSDCGWQLVL,0.604 ± 0.09
5,PLRYPQLTLPPP,0.6381 ± 0.0037
6,LLFYSVPLSSSF,0.655 ± 0.072
7,PVDPPEDLNTRS,0.7098 ± 0.0064
8,WWGWGGVACLLL,0.693 ± 0.059
9,LGTETASSGFSG,0.691 ± 0.029
10,AFPSPPATPSSQ,0.645 ± 0.079
11,LSGYTLRRIISQ,0.704 ± 0.063
12,EFVGKDRWVGGL,0.699 ± 0.053
13,SRTLYERTRFVL,0.647 ± 0.018
14,AVCCKYFGESLF,0.864 ± 0.0098
15,VGGCLFQLSSGY,0.683 ± 0.035
16,LRVVWNLSSRAI,0.636 ± 0.059
17,PPPPHPPRPPRP,0.676 ± 0.0074
18,SVVGRLVGGFRW,0.706 ± 0.021
19,LIPRCLIPVTRY,0.655 ± 0.018
20,PRLPHPPPFDSL,0.676 ± 0.016
21,EQTIGDRVPGKG,0.658 ± 0.051
22,PPVTAPPPPLRS,0.692 ± 0.014
23,ERRGAAGAGSTR,0.744 ± 0.045
24,SGAGVNWGVGGG,0.728 ± 0.019
25,PSTLQPLQRSPR,0.617 ± 0.0014
26,SSCLDAHPPSSS,0.736 ± 0.072

row,Sequence,protein stability index
1,RMLVNKLSAFFI,0.64 ± 0.053
2,GKIGAIRVVGWA,0.662 ± 0.02
3,GTQTITAQRAAA,0.643 ± 0.015
4,STTIRTPSGMFR,0.661 ± 0.0057
5,AMAELVCVSLRC,0.536 ± 0.016
6,APPPSLHCLRLP,0.725 ± 0.071
7,WSWGGLHRELAA,0.744 ± 0.0099
8,KKYEKNGKSSQK,0.685 ± 0.1
9,SNERWCGCGLLW,0.764 ± 0.0097
10,CALWHLLPVNLH,0.645 ± 0.059
11,FELYGVGLGTCA,0.633 ± 0.17
12,LFPLHLPSPPPG,0.7207 ± 0.0018
13,RGAHPCLDLRSE,0.654 ± 0.067
14,DGLGSSGCCLCW,0.693 ± 0.038
15,VDRAPFHLGRQG,0.712 ± 0.043
16,GAGVLTLDNRRV,0.674 ± 0.019
17,RPAVSCYTGGDH,0.7083 ± 0.0056
18,CRFRFGFNFSSF,0.581 ± 0.075
19,GGPIQAGLSFPG,0.685 ± 0.025
20,NPGGRPKNTINP,0.649 ± 0.11
21,GVGRVGLACFVV,0.542 ± 0.029
22,RWFQSSDVVDRQ,0.703 ± 0.086
23,GVVGTISLFVLD,0.61 ± 0.018
